These results are taken from the RNAGym collection of RNA variant scans (doi:10.7554/elife.90254).

The labels stand for the following.
B1: LINE1-full (parent)
chain: UACGUAGGUGGUUUUCCCCUGAUAGUGCUAAGGGGGCCUGGAAGUUUGGACUGGGCAGAGCUCAACACAGCGUGGCAAAGUGGCUGUGGCUAGACUGCCUCUCUGGAUUCCUCGUCACUCAGCAGGGCAUCUCUGAGAGAAAUGCC

The data set covers variants of B1. Description: self-cleavage, relative activity (ratio to wild type); higher = more cleavage; in vitro, sequencing; the parent is a self-cleaving ribozyme.
A6G U20A: the self-cleavage was found to be 1.05.
In the case of G4A A121C, the self-cleavage stood at 1.72.
In the case of G4A A121U, the self-cleavage amounted to 1.22.
In the case of U5A U9C it was 0.81.
As for G4A A141G, the self-cleavage is 0.89.
As to A6G U23C, the self-cleavage is 0.93.
In the case of A6G U119A, the self-cleavage was 1.52.
For U5C C90U, the self-cleavage stood at 0.11.
Consider G4C A141G, for which the self-cleavage worked out at 0.5.
As to U5C U73C, the self-cleavage is 1.16.
Regarding C3U U9C, the self-cleavage came out at 1.53.
For the variant U5C U85A, the self-cleavage turned out to be 0.21.
Take U5C U85C: the self-cleavage came to 0.27.
U5C G135A: the self-cleavage came out at 0.96.
As to A6G U39A, the self-cleavage is 0.6.
As for U5C U46C, the self-cleavage was 0.99.
In the case of A6G C56U it was 0.27; in that of U5C C19U, 1; in that of U5C C19A, 0.8.
Next, A6G A107G: 0.74; A6C U85G: 0.46; G4U U5C: 0.79.
On to U5C G32A, for which the self-cleavage is 1.06.
On to A6G U115A, for which the self-cleavage is 0.64.
Turning to A6G U115G, the self-cleavage stood at 2.04.
In the case of G4A C98A it was 0.19; in that of U5A U12G, 0.6.
Take U5A U12C: the self-cleavage turned out to be 0.74.
With A6G U46C, the self-cleavage amounted to 0.8.
In the case of A6G U46A it was 0.94.
Take G4A U20G: the self-cleavage was 0.62.
In the case of U5A G53A, the self-cleavage stood at 0.79.
In the case of U5C G55A, the self-cleavage came to 0.5.
In the case of C3U U100A, the self-cleavage came out at 0.68.
For the variant G4C A77G, the self-cleavage was found to be 2.9.
On to A6G A129U, for which the self-cleavage came out at 0.6.
Regarding A6G A129G, the self-cleavage is 0.26.
For U5A U81C, the self-cleavage amounted to 0.99.
For the variant U5G A121G, the self-cleavage was 0.84.
As to G4A G54A, the self-cleavage was 0.6.
For A6G G41U, the self-cleavage turned out to be 0.46.
On to A6G A50U, for which the self-cleavage was 0.51.
In the case of A6G A50C, the self-cleavage came to 1.23.
As for A6G A50G, the self-cleavage stood at 0.77.
As for G4A U23C, the self-cleavage is 1.11.
Next, A6C G35A: 1.5.
U5G U13C: the self-cleavage is 0.83.
For the variant C3U U5C, the self-cleavage was 1.16.
Consider U5A A138C, for which the self-cleavage stood at 0.98.
With U5C G80A, the self-cleavage stood at 2.24.
Turning to A6G G33A, the self-cleavage is 0.49.
U5C A121U: the self-cleavage was 0.86.
With U5C A121G, the self-cleavage worked out at 1.28.
A6G A78G: the self-cleavage was 1.15.
On to U5C U15C, for which the self-cleavage is 1.
Consider U5A U102C, for which the self-cleavage came out at 0.95.
Next, G4U U109C: 1.07; A6G: 0.91.
Next, A6C: 1.08; G4U A136G: 1.91.
On to A6G A117G, for which the self-cleavage came to 1.41.
Next, A6G A117U: 2.04; U5C G33A: 1.45.
In the case of C3U U108C it was 1.26; in that of U5G A107G, 0.86.
Regarding G4A U104C, the self-cleavage was 0.83.
For the variant G4A U47A, the self-cleavage is 0.52.
U5C U26G: the self-cleavage was 0.47.
Turning to G4U U52A, the self-cleavage worked out at 1.01.
Next, U5C C113A: 0.36.
Consider U5C A107G, for which the self-cleavage is 1.13.
For U5C A129G, the self-cleavage worked out at 1.43.
In the case of U5A A94G it was 0.44.
As to U5A A94U, the self-cleavage was 0.32.
As to U5C G126A, the self-cleavage is 1.36.
G4C A64G: the self-cleavage worked out at 1.25.
Next, C3U U29A: 1.07; U5A A136G: 1.14.
Take U5A A136U: the self-cleavage was found to be 1.11.
For the variant A6G G74A, the self-cleavage turned out to be 0.4.
As to U5A A57U, the self-cleavage stood at 0.34.
In the case of U5A A57G it was 0.83; in that of U5C A77G, 1.49.
Turning to U5C A77U, the self-cleavage was determined as 0.73.
U5C A59G: the self-cleavage was 0.32.
U5C U12G: the self-cleavage was determined as 1.34.
Turning to U5C U12C, the self-cleavage amounted to 0.86.
Take A6G G122A: the self-cleavage stood at 0.55.
Turning to A6G C113U, the self-cleavage is 0.84.
In the case of A6G C113A it was 1.18.
Turning to U5C C146U, the self-cleavage is 0.69.
For U5A C95U, the self-cleavage is 0.14.
Next, G4A G139A: 1.21.
Next, U5C C71U: 0.68; U5C A141U: 0.73; U5A U45G: 0.71.
With U5A U45C, the self-cleavage stood at 1.
Next, U5C G89U: 0.16; U5G A67U: 0.31; U5C U104A: 1.28.
In the case of G4A A107U, the self-cleavage worked out at 0.2.
Next, A6G U52A: 0.43.
Take G4A U108C: the self-cleavage amounted to 1.04.
Regarding U5C U14A, the self-cleavage was found to be 0.86.
As to U5C U62C, the self-cleavage came out at 0.07.
For the variant A6G U81A, the self-cleavage was determined as 1.47.
Turning to G4A U96C, the self-cleavage is 0.15.
Turning to A6G C38U, the self-cleavage was determined as 1.62.
As to A6G A92U, the self-cleavage stood at 1.23.
As for A6G A92G, the self-cleavage was 0.22.
Next, A6G C101A: 0.56; G4A U12G: 1.23.
Regarding U5C C123U, the self-cleavage is 0.45.
For G4A U115A, the self-cleavage is 1.14.
With G4A U115C, the self-cleavage amounted to 0.9.
For the variant U5A U62A, the self-cleavage was 0.
Turning to U5A C128U, the self-cleavage was found to be 1.06.
Turning to U5A A6U, the self-cleavage was 1.23.
Take U5A A6G: the self-cleavage was 2.12.
For G4A C133A, the self-cleavage came out at 0.79.
In the case of A6G G126A it was 0.99; in that of G4A U81A, 1.34; in that of U5C U23G, 1.53.
U5A A142G: the self-cleavage was found to be 0.89.
As to U5G U112C, the self-cleavage was 0.51.
For the variant U5C A31C, the self-cleavage amounted to 0.75.
In the case of U5C A31U, the self-cleavage amounted to 0.78.
On to A6G U45G, for which the self-cleavage was 0.97.
Regarding A6G U45C, the self-cleavage stood at 0.5.
In the case of C3U U20C it was 0.44; in that of C3U U96A, 0.07.
In the case of G4A U85C it was 0.13; in that of U5C U87C, 0.15.
In the case of U5C A138C, the self-cleavage was 0.
As for A6C U115A, the self-cleavage worked out at 0.8.
Turning to U5C C116A, the self-cleavage was 1.29.
As to C3U U119C, the self-cleavage worked out at 1.14.
In the case of A6G U26C, the self-cleavage was 0.9.
In the case of G4A A136G it was 0.86; in that of G4A A124U, 0.53; in that of U5A A65C, 0.08.
Turning to U5C G10A, the self-cleavage turned out to be 0.51.
Next, G4U U119C: 1.31; U5A A77G: 2.07; U5G U132C: 1.04.
On to U5A A129G, for which the self-cleavage worked out at 0.79.
For the variant G4U A121U, the self-cleavage was determined as 1.23.
Regarding G4A U14C, the self-cleavage came out at 0.59.
For the variant G4A U14A, the self-cleavage was found to be 0.75.
For the variant U5C U109C, the self-cleavage is 0.91.
As for A6G A65G, the self-cleavage amounted to 0.09.
For the variant G4C A78G, the self-cleavage was determined as 0.81.
Turning to C3U U47A, the self-cleavage came to 0.67.
For A6G U108C, the self-cleavage is 0.79.
On to A6C A124U, for which the self-cleavage was 1.13.
As for G4A A140C, the self-cleavage stood at 0.27.
Regarding G4A A140G, the self-cleavage stood at 0.76.
U5C A124G: the self-cleavage worked out at 1.15.
In the case of U5C A124C, the self-cleavage was found to be 0.8.
As to A6G U29C, the self-cleavage worked out at 0.74.
U5C U132C: the self-cleavage was determined as 0.86.
In the case of G4A A79G it was 1.3; in that of G4A A79U, 0.64; in that of U5A A69U, 0.09.
Consider U5A A69G, for which the self-cleavage was 0.45.
A6G G125A: the self-cleavage amounted to 0.77.
With G4C U96A, the self-cleavage was 0.12.
